Assay results from publication PMC5405513, “Identification and biochemical characterization of the fructokinase gene family in Arabidopsis thaliana” (BMC Plant Biology, 2017).

Key:
Test in all cases: coupled pyruvate kinase / lactate dehydrogenase assay, NADH oxidation at A340
Type in all cases: biochemical, Arabidopsis thaliana
Conditions in all cases: 50 mM Tris pH 7.5, 100 mM KCl, 10 mM MgCl2, 1 mM fructose, 10 mM phosphate, Michaelis-Menten fit
[1] = substrate: Nc1ncnc2c1ncn2[C@@H]1O[C@H](COP(=O)(O)OP(=O)(O)OP(=O)(O)O)[C@@H](O)[C@H]1O
Excerpt: coupled pyruvate kinase / lactate dehydrogenase assay, NADH oxidation at A340 on FRK2

[2] = substrate: Nc1ncnc2c1ncn2[C@@H]1O[C@H](COP(=O)(O)OP(=O)(O)OP(=O)(O)O)[C@@H](O)[C@H]1O; remark: listed apart in the source
Excerpt: coupled pyruvate kinase / lactate dehydrogenase assay, NADH oxidation at A340 on FRK6

[3] = substrate: Nc1ncnc2c1ncn2[C@@H]1O[C@H](COP(=O)(O)OP(=O)(O)OP(=O)(O)O)[C@@H](O)[C@H]1O; remark: listed apart in the source
Excerpt: coupled pyruvate kinase / lactate dehydrogenase assay, NADH oxidation at A340 on FRK3

[4] = substrate: Nc1ncnc2c1ncn2[C@@H]1O[C@H](COP(=O)(O)OP(=O)(O)OP(=O)(O)O)[C@@H](O)[C@H]1O; remark: listed apart in the source
Excerpt: coupled pyruvate kinase / lactate dehydrogenase assay, NADH oxidation at A340 on FRK5

[5] = substrate: Nc1ncnc2c1ncn2[C@@H]1O[C@H](COP(=O)(O)OP(=O)(O)OP(=O)(O)O)[C@@H](O)[C@H]1O; remark: listed apart in the source
Excerpt: coupled pyruvate kinase / lactate dehydrogenase assay, NADH oxidation at A340 on FRK1

[6] = substrate: Nc1ncnc2c1ncn2[C@@H]1O[C@H](COP(=O)(O)OP(=O)(O)OP(=O)(O)O)[C@@H](O)[C@H]1O; remark: listed apart in the source
Excerpt: coupled pyruvate kinase / lactate dehydrogenase assay, NADH oxidation at A340 on FRK4

B1: FRK2 (Arabidopsis thaliana) (protein)
chain: MASNGDKGLIVSFGEMLIDFVPTESGVSLAEAPGFLKAPGGAPANVAIAVSRLGGRSAFVGKLGDDEFGHMLAGILRKNGVDDQGINFDTGARTALAFVTLRADGDREFMFYRNPSADMLLRPDELNLDLIRSAKVFHYGSISLIVEPCRSAHLKAMEVAKEAGALLSYDPNLREPLWPSKEEAKTQIMSIWDKAEIIKVSDVELEFLTGSNKIDDETALTLWHPNLKLLLVTLGEKGCRYYTKTFKGAVDPFHVNAVDTTGAGDSFVGALLNQIVDDRSVLEDEERLRKVLRFANACGAITTTKKGAIPALPSDAEVRSFLEKK
Km [1]: 85 ± 8.7 µM | kcat [1]: 10.3 s⁻¹

B2: FRK6 (Arabidopsis thaliana) (protein)
chain: MTSSNGDNKGLVVSFGEMLIDFVPTESGVSLSESSGFLKAPGGAPANVAIAVSRLGGRAAFVGKLGDDEFGHMLAGILRKNDVDDQGINFDKGARTALAFVTLRSDGEREFMFYRNPSADMLLRPDELNLELIRSAKVFHYGSISLITEPCRSAHMKAMEVAKEAGALLSYDPNLREPLWPSPEEARKQIMSIWDKADIIKVSDVELEFLTGNKTIDDETAMSLWHPNLKLLLVTLGENGCRYYTKDFHGSVETFHVDAVDTTGAGDSFVGALLNQIVDDQSVLEEEERLRKVLRFANACGAITTTKKGAIPALPTDCEALSFLKIQVE
Km [2]: 160 ± 21 µM | kcat [2]: 12.8 s⁻¹

B3: FRK3 (Arabidopsis thaliana) (protein)
chain: SNLKGRALSSDGSTQESPYVVCFGEMLIDFVPTTSGLSLADAPAFKKAPGGAPANVAVGIARLGGSSAFIGKVGEDEFGYMLANILKDNNVNNDGMRFDPGARTALAFVTLTNEGEREFMFYRNPSADMLLEESELDFDLIKKAKIFHYGSISLITEPCKSAHISAAKAAKEAGVILSYDPNLRLPLWPSADNAREEILSIWETADIIKISEEEIVFLTKGEDPYDDNVVRKLFHPKLKLLLVTEGPEGCRYYTKDFSGRVHGLKVDVVDTTGAGDAFVAGILSQLANDLSLLQDEERLREALMFANACGALTVKVRGAIPALPTKEAVHEALLKAVV
Km [3]: 52 ± 9.8 µM | kcat [3]: 14.3 s⁻¹

B4: FRK5 (Arabidopsis thaliana) (protein)
chain: MASSTGEKGLIVSFGEMLIDFVPTVSGVSLSESPGFLKAPGGAPANVAIAVSRLGGRAAFVGKLGDDDFGHMLAGILRKNGVDDQGINFDEGARTALAFVTLRSDGEREFMFYRNPSADMLLRPDELNLELIRSAKVFHYGSISLITEPCRSAHMKAMEVAKEAGALLSYDPNLREPLWPSPEEARTQIMSIWDKADIIKVSDVELEFLTENKTMDDKTAMSLWHPNLKLLLVTLGEKGCTYFTKKFHGSVETFHVDAVDTTGAGDSFVGALLQQIVDDQSVLEDEARLRKVLRFANACGAITTTKKGAIPALPTDIEALSFLKDQKKRQTNLKFSKWCCTASPC
Km [4]: 180 ± 57 µM | kcat [4]: 4.8 s⁻¹

B5: FRK1 (Arabidopsis thaliana) (protein)
chain: MGEDAISGNLKNLTIDTRDSETLVVCFGEMLIDFVPTVGGVSLAEAPAFKKAPGGAPANVAVGVSRLGGSSAFIGKVGDDEFGRMLADILRLNNVDNSGMRFDHNARTALAFVTLRGDGEREFLFFRHPSADMLLLESELDKNLIQKAKIFHYGSISLIEEPCRSTQLVAMKIAKAAGSLLSYDPNLRLPLWPSEEAARKEIMSIWNLADVIKISEDEITFLTGGDDPYDDDVVLQKLFHPNLKLLVVSEGPNGCRYYTQEFKGRVGGVKVKPVDTTGAGDAFVSGLLNSLASDLTLLKDEKKLREALLFANACGAITVTERGAIPAMPSMDAVQDLLSSTRS
Km [5]: 52 ± 7.8 µM | kcat [5]: 14.2 s⁻¹

B6: FRK4 (Arabidopsis thaliana) (protein)
chain: MANTPLIVSFGEMLIDFVPDTSGVSLAESTGFLKAPGGAPANVACAITKLGGKSAFIGKFGDDEFGHMLVNILKKNGVNSEGVCFDTNARTALAFVTLKKDGEREFMFYRNPSADMLLKESELNKDLIKKAKIFHYGSISLISEPCRTAHMAAMKTAKDAGVLLSYDPNVRLPLWPSTEAAIEGIKSIWNEADIIKVSDDEVTFLTRGDAEKDDVVLSLMHDKLKLLIVTDGEKGCRYYTKKFKGRVPGYAVKAVDTTGAGDSFVGAFLVSLGKDGSILDDEGKLKEALAFANACGAVCTTQKGAIPALPTPADAQKLMKSKSK
Km [6]: 95 ± 7.9 µM | kcat [6]: 11.1 s⁻¹
